Source: patent US12018081B1, “Photoconjugation reactions for modification of specific proteins on live cells” (The Regents of the University of Colorado, a body, priority 2019, dated 2024)

Legend:
MDA-MB-468 cells = assay type: cell-based, human; details: drug or prodrug only, no protein, FIG. 4
Description: Finally, having established both the photocrosslinking of the […] affibody-enzyme to EGFR on living cells and retention of protein expression before and after endocytosis, the enzymatic activity of the fusion proteins was then leveraged for cell killing by prodrug conversion. […] Next, prodrug therapy experiments were run against MDA-MB-468 cells in vitro. In 96-well plates, cells were incubated with 1 μM of WT-CodA, N23-CodA, or CodA alone. As before, after 3 h the cells were irradiated with 365 nm light for 30 min followed by further incubation to a total time of 8, 24, or 48 h. When each time point was reached, the excess affibody-enzymes were removed by washing the cells three times with PBS, and 2 mM of 5-FC was added. […] After 12 h incubation with 5-FC, excess pro-drug was removed, cells were washed with PBS, and viability was measured by MTT assay. […]
Prodrug Cytotoxicity (MTT) Assays: The MDA-MB-468 cells were grown to confluence, after which the cells were washed once with DPBS (Gibco) and then trypsinized with 0.025% trypsin-EDTA (Gibco). […] The crystals were dissolved in 100 μL isopropyl alcohol (IPA), and absorbance from the wells was measured at 570 nm in a Tecan Safire II Multimode Plate reader. The readings were then normalized to the cells that were treated with neither enzyme, enzyme-affibody, nor 5-FC/5-FU to calculate the fractional viability. […]

[1] = biological target: EGFR expressed on live MDA-MB-468 human breast carcinoma cells (human) (UniProt P00533); experiment: cell-based or functional assay
[2] = biological target: Extracellular domain of purified human EGFR (Sino Biological) (human) (UniProt P00533); experiment: microscale thermophoresis, AF647-labelled soluble EGFR, fusion protein titrated
[3] = Affibody-enzyme kinetic activity assay with cytosine (UV-Vis); assay type: biochemical; details: 50 nM enzyme, cytosine 100-250 μM, 50 mM Tris-HCl pH 7.5
Description: Affibody-enzyme Kinetic Activity Assays with Cytosine: The enzymatic assay for N23-CodA, WT-CodA, and CodA were performed by varying substrate concentration and measuring the absorbance using a UV-VIS spectrophotometer (Agilent Technologies, Cary Series 100). A stock of 10 mM cytosine was prepared in 50 mM Tris-HCl at pH 7.5. Varying concentrations (250, 200, 150 and 100 μM) of cytosine solution were prepared from the stock and mixed with 50 nM of the enzyme and enzyme-affibodies. The reaction was run for 15 min with OD267 (cytosine) and OD260 (uracil) readings taken every 12 s. The concentration of cytosine was calculated for each time point and the kinetic parameters KM and kcat were calculated using the methods of initial rates and double reciprocal plots.

[4] = reported value for free CodA; cited from earlier work

Kd [2] | Molecule | baseline viability (cell viability fraction) (MDA-MB-468 cells) | other results
 | Nc1nc(=O)[nH]cc1F [5-FC, 5-fluorocytosine] | 0.854 | 
 | O=c1[nH]cc(F)c(=O)[nH]1 [5-FU, 5-fluorouracil] | 0.467 | 
44 nM | BP-modified mutant affibody-enzyme (N23C ZEGFR:1907 affibody with benzophenone, fused to cytosine deaminase) (from UniProt P25524 2-427) (designed binder) |  | cell viability of MDA-MB-468 cells by MTT assay after 5-FC prodrug [1]: 50 to 55%
25 nM | WT affibody-fused CodA (ZEGFR:1907 affibody fused to cytosine deaminase) (from UniProt P25524 2-427) (designed binder) |  | 
 | CodA: Cytosine deaminase, bacterial enzyme of E. coli, alone without affibody (protein, UniProt P25524 2-427, looked up) Cytosine deaminase: SNNALQTIINARLPGEEGLWQIHLQDGKISAIDAQSGVMPITENSLDAEQGLVIPPFVEPHIHLDTTQTAGQPNWNQSGTLFEGIERWAERKALLTHDDVKQRAWQTLKWQIANGIQHVRTHVDVSDATLTALKAMLEVKQEVAPWIDLQIVAFPQEGILSYPNGEALLEEALRLGADVVGAIPHFEFTREYGVESLHKTFALAQKYDRLIDVHCDEIDDEQSRFVETVAALAHHEGMGARVTASHTTAMHSYNGAYTSRLFRLLKMSGINFVANPLVNIHLQGRFDTYPKRRGITRVKEMLESGINVCFGHDDVFDPWYPLGTANMLQVLHMGLHVCQLMGYGQINDGLNLITHHSARTLNLQDYGIAAGNSANLIILPAENGFDALRRQVPVRYSVRGGKVIASTQPAQTTVYLEQPEAIDYKR |  | Km [3]: 2520 µM; kcat [3]: 53.57 s⁻¹; melting temperature, reported value [4]: 85 °C
